# Data as given in the nanobody polyreactivity screen of Harvey et al. (2022).
# Assay: yeast display, Sf9 membrane polyspecificity reagent, FACS + sequencing; frameworks hold sequencing errors
# In short: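 Nanobodies from a synthetic yeast display library (Saccharomyces cerevisiae BJ5465), induced 36–48 hours with galactose, were stained 1 hour at 4 °C with 10% biotinylated, detergent-solubilized Sf9 membrane reagent, enriched on streptavidin microbeads, then FACS-sorted. Anti-HA (expression) and streptavidin (reagent binding) fluorescence set low and high (top ~1%) gates. Polyreactivity labels come from the gate of origin. Genes were colony-PCR amplified, MiSeq 2 × 250 sequenced and filtered by CDR length.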
row,Sequence,polyreactivity (PSR sort gate)
1,QVQLVESGGGLVQAGGSLRLSCAASGFTFHQYTMGWYRQAPGKERELVAAISRSGYTNYADSVKGRFTISRDNAKNTVYLQMNSLKPEDTAVYYCNARSTRSRTYQSYDYWGQGTQVTVSS,high polyreactivity
2,QVQLVESGGGLVQAGGSLRLSCAASGFTFHRNAMGWYRQAPGKERELVAAISTRGGSTAYADSVKGRFTISRDNAKNTVYLQMNSLKPEDTAVYYCAAATSPGIYDYWGQGTQVTVSS,high polyreactivity
3,QVQLVESGGGLVQAGGSLRLSCAASGFTFHYNAMGWYRQAPGKERELVAAISRSGGITNYADSVKGRFTISRDNAKNTVYLQMNSLKPEDTAVYYCAAYLVVRIRYTQRYDYWGQGTQVTVSS,low polyreactivity
4,QVQLVESGGGLVQAGGSLRLSCAASGFTFHYYTMGWYRQAPGKERELVASINYSGGRTYYADSVKGRFTISRDNAKNTVYLQMNSLKPEDTAVYYCNARYKSTYYYWGQGTQVTVSS,high polyreactivity
5,QVQLVESGGGLVQAGGSLRLSCAASGFTFIFNAMGWNRQAPGKERELVATISSGGSTYYADSVKGRFTISRDNAKNTVYLQMNSLKPEDTAVYYCNTDDVGGYDYWGQGTQVTLSS,low polyreactivity
6,QVQLVESGGGLVQAGGSLRLSCAASGFTFIKYAMGWSRQAPGNEMEFVAAITRSGTSTYYADSVKGRFTISRDNAKNTVYLQMNSLKPEDTAVYYCAATYPRYYSGEFDYWGQGTLVTVSS,high polyreactivity
7,QVQLVESGGGLVQAGGSLRLSCAASGFTFIKYAMGWYRQATGNEREFVATISWNGGNTYYADSVKGRFTISRDNAKNTVYLQMNSLKPEDTAVYYCAARVKYRTRGGTVVSYDYWGQGTQVTVSS,high polyreactivity
8,QVQLVESGGGLVQAGGSLRLSCAASGFTFIRNAMGWYRQAPGKERELVAAISRSGGSTYYADSVKGRFTISRDNAKKTVYLQMNSQKPEDTAVYYCAVTLYLKWQGGAYDYWGQGTQVTVSS,low polyreactivity
9,QVQLVESGGGLVQAGGSLRLSCAASGFTFIRYAMGWYRQAPGKERELVATITRRGGSTYYADSVKGRFTISRDNAKNTVYLQMNSLKPEDTAVYYCNRDYVTYGKYYYWGQGTQVTVSS,high polyreactivity
10,QVQLVESGGGLVQAGGSLRLSCAASGFTFIRYAMGWYRQAPGKEREVVAAISWRVGITYYADSVKGRFTISRDNAKNTVYLQMNSQKPEDTAVYYCARDYRNPPFAYEYWGQGTQVTVSS,low polyreactivity
11,QVQLVESGGGLVQAGGSLRLSCAASGFTFIRYSMGWYRQAPGKERELVATISRSGGRTYYADSVKGRFTISRDNAKNTVYLQMNSLKPEDTAVYYCNAEAIVLNGGGYWGQGTQVTVSS,high polyreactivity
12,QVQLVESGGGLVQAGGSLRLSCAASGFTFISNAMGWYRQAPGKERELVAAISSSGGRTYYADSVKGRFTISRDNAKNTVYLQMNRLKPEDTAVYYCYADRSLLYSRKIEYDYWGQGTQVTVSS,low polyreactivity
13,QVQLVESGGGLVQAGGSLRLSCAASGFTFIYYAMGWYRQAPGKERELVAAISASGGSTYYADSVKGRFTISRDNAKNTVYLQMNSLKPEDTAVYYCAADALIYYKGSPDYYWGQGTQVTVSS,high polyreactivity
14,QVQLVESGGGLVQAGGSLRLSCAASGFTFKCYTMGWYRQAPGKERELVAGISRRGGSTYYADSVKGRFTISRDNAKNTVYLQMNSLKPEDTAVYDCAADSQLTKFYYWGQGSQVTVSS,high polyreactivity
15,QVQLVESGGGLVQAGGSLRLSCAASGFTFKGNAMGWYRQAPGTERELVATITQSAGSTYYADSVKGRFTISRDNAKNTVYLEMNSLKPEDTAVYYCNADPITLYYYSWYNYWGQGTQVTVSS,low polyreactivity
16,QVQLVESGGGLVQAGGSLRLSCAASGFTFKNNAMGWYRQAPGKEREFVASISSGSTNYADSVKGRFTISRDNAKYTVYLQMNSLKPEDTEVYYCIRAPYRYSEPDYRSDFWGQGTQVTVSS,low polyreactivity
17,QVQLVESGGGLVQAGGSLRLSCAASGFTFKQYGMGWYRQAPGKERELVASISYRGGSTHYADSVKGRFTISRDNAKKTVYLQMNSLKPEDTAVYYCAARVTSRTSIKGDYWGQGTQVTVSS,low polyreactivity
18,QVQLVESGGGLVQAGGSLRLSCAASGFTFKSYAMGWYRQAPGKERELVAAISRGTSTKYADSVKGRFTISRDNAKNTVYLQMNSLKPEDTAVYYCAALFPTSDLRLRYYRYDYWGQGTQVTVSS,low polyreactivity
19,QVQLVESGGGLVQAGGSLRLSCAASGFTFKSYGMGWYRQAPGKERELVAAISKSGGRTYYADSVKGRFTISRDNAKNTVYLQMNSLKPEDTAVYYCAARVYGVDGYGYWGQGTQVTVSS,high polyreactivity
20,QVQLVESGGGLVQAGGSLRLSCAASGFTFKYTDMGWYRQAPGKERELVAAINWRGGSTYYADSLKGRFTISRDNAKNTVYLQMNSLKPEDTAFYYCNLVYRPSRYDYWGQGTQVTVSS,high polyreactivity
21,QVQLVESGGGLVQAGGSLRLSCAASGFTFKYYSMGRYRQAPGKERELVAAISRGGRTNYADSVKGRFTISRDNAKNTVYLQMNSLKPEDTAVYYCAADGIYALFFTSGGIWFDYWGEGTQVTVSS,low polyreactivity

row,Sequence,polyreactivity (PSR sort gate)
1,QVQLVESGGGLVQAGGSLRLSCAASGFTFKYYTMGWYRHAPGKETELDAVITRSGGSTYADSVKGRFTISRDNAKNTVYLQMNSLKPVDTAVYYCAKGAAGINLVRHDYWGQVTQVTVSS,high polyreactivity
2,QVQLVESGGGLVQAGGSLRLSCAASGFTFKYYTMGWYRQAPGKERELVAAISKSGDITYYADSVKGRFTISRDNAKNTVYLQMNSLKPEDTAVYYCAAVGRVSYNRFDYWGQGTQVTVSS,high polyreactivity
3,QVQLVESGGGLVQAGGSLRLSCAASGFTFKYYTMGWYRQAPGKERELVAAISSAASTNYADSVKGRFTISRDNAKNTVYLQMNSLKPEDTAVYYCNADITGWARIRYQWIRQYDYWGQGTQVTVSS,high polyreactivity
4,QVQLVESGGGLVQAGGSLRLSCAASGFTFLAYAMGWYRQAPGKERELGAAISKSGGSTYYADSVKGRFTISRDNAKITVYLQMNSLKPEDTAVYYCNAGRRIKFYGSYDYWGQGTQVTVSS,high polyreactivity
5,QVQLVESGGGLVQAGGSLRLSCAASGFTFLAYAMGWYRQAPGKERELVAAISRSGGRTYYADSVKGRFTISRDNAKNTVYLQMNSLNPEDTAVYYCAAPPRANLFDYWGQGTQVTVSS,high polyreactivity
6,QVQLVESGGGLVQAGGSLRLSCAASGFTFLFYAKGWYRHAPGKEMELVAAISWSGDTTYYADSVKGRFTISLDNSKNTVYLQMNSLKPEDTAVYYCNAESNIFGYDYWGQGTQVTVTS,high polyreactivity
7,QVQLVESGGGLVQAGGSLRLSCAASGFTFLINAMGWYRQAPGKERELVAAIRSGGSTNYADSVKGRFTISRDNAKNTVYFQMNSLKPEDTAVYYCAARRYYPYKYRYGYWGQGTQVTVSS,high polyreactivity
8,QVQLVESGGGLVQAGGSLRLSCAASGFTFLIYAMGWYRQAPGKERELVAAITWRGSGTYYADSVKGRFTISRDNAKNTVYLQMNSLNPEDTAVFYCGARTARRTYDYWGQGTQVTVSS,low polyreactivity
9,QVQLVESGGGLVQAGGSLRLSCAASGFTFLKYAMGWYIQAPGKERELVARITSGGRTYYADSVKGRFTISRDNAKNTVYLQMNSLKPEDTAVYYCNAVKSYASLYAGFYYWGQGTQVTVSS,high polyreactivity
10,QVQLVESGGGLVQAGGSLRLSCAASGFTFLNYAMGWYRQAPGKERELVAAISFSTGRTYYADSVKGRFTISRDNAKNTVYLQMNSLKPEDTAVYYCYVLHRSDSGYYYRYDYWGQVTQVTVSS,high polyreactivity
11,QVQLVESGGGLVQAGGSLRLSCAASGFTFLRYALGWYRQAPGKERELVAAISTSGGSTSYADSVKGRFTITRDNAKNTVYLQMNSLKPEDTAVYYCNAVLYKVSISEYDYWGQGTQVTVSS,high polyreactivity
12,QVQLVESGGGLVQAGGSLRLSCAASGFTFLRYAMGWYRQAPGKERELVAGITSRGASTYYADSVKGRFTISRDNAKTTVYLQINSLKPEDTAVYYCAADGSHTRYRYDYWGQGTQVTVSS,high polyreactivity
13,QVQLVESGGGLVQAGGSLRLSCAASGFTFLSYTMGWYRQAPGKERELVASITASGTRTYYADSVKGRFTISRDNAKNTVYLQMNSLKPEDTAVYYCNRVGFDYWGQGTQVTVSS,low polyreactivity
14,QVQLVESGGGLVQAGGSLRLSCAASGFTFLSYTMGWYSQAPGKERELVASITASGTRTYYADSVKGRFIISRDNAKNTVYLQMNRLKPEDTAVYYFAARWISVWSEGAEHDYWGQGTQVTVSS,low polyreactivity
15,QVQLVESGGGLVQAGGSLRLSCAASGFTFLYNAMGWYRQAPGKERELVAAIDSGGMTNYADSVKGRFTISRDNAKNTVYLQMKSLKPEDTAVYYCAARFTQYITSDDGHYYYWGQGTQVTVSS,low polyreactivity
16,QVQLVESGGGLVQAGGSLRLSCAASGFTFLYNAMGWYRQAPVKERELVASINSGGSTNYADSVKGRFTISRDNAKNTVYLQMNSLKPEDTAVYYCNAKRHVRKGDYWGLGTQVTVSS,low polyreactivity
17,QVQLVESGGGLVQAGGSLRLSCAASGFTFLYNVMGWYRQAPGKERELVAAISQSGTDTYYADSVKGRFTISRDNAKNTVYLQKNSLKPEDTAVYYCATEYYSQPRDDYWGQGTQVTVSS,low polyreactivity
18,QVQLVESGGGLVQAGGSLRLSCAASGFTFLYYDMGWYRQAPGKERELVAAITNDDSTYYADSVKGRFTISRDNAKNTVYLQMNSLKPEDTAVYYCAADSVYGSDEYWGQGTQVTVSS,high polyreactivity
19,QVQLVESGGGLVQAGGSLRLSCAASGFTFNANAMGWYRQAPGKERELVAFITRSGGRTYYADSVKGRFTISRDNAKNTVYLQMNSLKPEDTAVYYCAKEGPSRVYQGTDSASDYWGQGTQVTVSS,high polyreactivity
20,QVQLVESGGGLVQAGGSLRLSCAASGFTFNRNAMGWYIQAPGKERELVAAISWSGGSTYYADSVKGRFTISRDNAKNTVYLQMNSLKPQDTEVYYCAKGYRRVYGPFYFWGQGTQVTVSS,low polyreactivity
